The target in one data set is T1, BKACE15 (Paracoccus denitrificans, UniProt A1B802).
T1 construct: gene Pden_3578
T1 sequence (A1B802 1-310): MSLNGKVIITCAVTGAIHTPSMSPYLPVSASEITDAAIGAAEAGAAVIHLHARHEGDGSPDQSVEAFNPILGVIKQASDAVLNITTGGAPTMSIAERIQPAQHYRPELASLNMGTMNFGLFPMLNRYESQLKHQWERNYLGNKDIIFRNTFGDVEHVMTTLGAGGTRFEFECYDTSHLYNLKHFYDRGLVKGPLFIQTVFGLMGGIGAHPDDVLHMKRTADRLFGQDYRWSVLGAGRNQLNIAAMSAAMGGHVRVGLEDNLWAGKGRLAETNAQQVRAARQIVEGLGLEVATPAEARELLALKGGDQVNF
The data set can be described thus: crystal structure at […] Å (with acetyl-CoA); product inhibition measured by LC-MS with purified enzyme. The class given is biochemical.

Substrate in data set [1]: O=CCC(=O)O
The data set is described as follows: purified protein. The class given is biochemical, Paracoccus denitrificans. Particulars: Zn2+ MSA must enter the active site first, before acetyl-CoA can bind.

Substrate in data set [2]: CC(=O)SCCNC(=O)CCNC(=O)[C@H](O)C(C)(C)COP(=O)(O)OP(=O)(O)OC[C@H]1O[C@@H](n2cnc3c(N)ncnc32)[C@H](O)[C@@H]1OP(=O)(O)O
The data set is described as follows: purified protein. Particulars: Zn2+ active site entry channel, fully occupied upon acetyl-CoA binding.

As a reminder, the IC50 is the concentration at which inhibition is half-maximal. A lower IC50 goes with greater potency in that assay. What is called Km is the concentration of substrate that gives half-maximal velocity.

As for `CC(=O)CC(=O)O` [AAE, acetoacetate], the IC50 against BKACE15 was determined as 1450 ± 160 µM.

B1: BKACE15 (Paracoccus denitrificans PD1222) (protein)
chain: MSLNGKVIITCAVTGAIHTPSMSPYLPVSASEITDAAIGAAEAGAAVIHLHARHEGDGSPDQSVEAFNPILGVIKQASDAVLNITTGGAPTMSIAERIQPAQHYRPELASLNMGTMNFGLFPMLNRYESQLKHQWERNYLGNKDIIFRNTFGDVEHVMTTLGAGGTRFEFECYDTSHLYNLKHFYDRGLVKGPLFIQTVFGLMGGIGAHPDDVLHMKRTADRLFGQDYRWSVLGAGRNQLNIAAMSAAMGGHVRVGLEDNLWAGKGRLAETNAQQVRAARQIVEGLGLEVATPAEARELLALKGGDQVNF
B1: the results for the Michaelis-Menten constant (Km) in “purified protein [1]” and in “purified protein [2]” were 830 ± 90 µM and 110 ± 10 µM, respectively.

Source of the values: paper PMC11961710, “Design and implementation of aerobic and ambient CO2-reduction as an entry-point for enhanced carbon fixation” (Nature Communications, 2025).
